Reference: publication PMC4500674 (Archives of biochemistry and biophysics, 2015)

Target: T1, human Mia40, wild type, short linker form (human, UniProt Q8N4Q1 1-142)
T1 sequence: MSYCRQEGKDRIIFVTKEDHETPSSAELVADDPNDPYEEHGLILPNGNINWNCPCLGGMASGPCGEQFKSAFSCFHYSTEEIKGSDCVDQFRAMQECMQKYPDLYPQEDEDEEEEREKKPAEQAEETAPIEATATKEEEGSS
Test: stopped-flow fluorescence kinetics

Kd: 10.4 ± 0.2 µM
B1: reduced bovine pancreatic ribonuclease A (natural protein, UniProt P61823 27-150, looked up)
chain: KETAAAKFERQHMDSSTSAASSSNYCNQMMKSRNLTKDRCKPVNTFVHESLADVQAVCSQKNVACKNGQTNCYQSYSTMSITDCRETGSSKYPNCAYKTTQANKHIIVACEGNPYVPVHFDASV
